Values of other authors, collected in publication PMC2882753.

What was measured:
His134 = experiment: NMR; conditions: 298 K; not stated (no ferricyanide present); oxidized [2Fe-2S] cluster
His154 = experiment: NMR; conditions: 298 K; not stated (no ferricyanide present); oxidized [2Fe-2S] cluster

Substance: Rieske iron-sulfur protein, soluble fragment (TtRp) (Thermus thermophilus; del1-45;del202-210;W142F)
- pKa (His134): 9.24 ± 0.02
- pKa (His154): 7.46 ± 0.02
